# Measurements as given in US7294706.
# Positions count from the first letter of the chain named. Numbers in names are those of the source.
# B1: FGF4 (Gly79-Leu206) Y87A (ligand)
# chain: GIKRLRRLACNVGIGFHLQALPDGRIGGAHADTRDSLLELSPVERGVVSIFGVASRFFVAMSSKGKLYGSPFFTDECTFKEILLPNNYNAYESYKYPGMFIALGKNGKTKKGNRVSPTMKVTHFLPRL
# B2: FGF4 (Gly79-Leu206) Y166A (ligand)
# chain: B1 chain with A9Y, Y88A
# B3: FGF4 (Gly79-Leu206) L203A (ligand)
# chain: B1 chain with A9Y, L125A
# B4: FGF4 (Gly79-Leu206) R205A (ligand)
# chain: B1 chain with A9Y, R127A
# B5: FGF4 (Gly79-Leu206) F129A (ligand)
# chain: B1 chain with A9Y, F51A
# B6: FGF4 (Gly79-Leu206) E117A (ligand)
# chain: B1 chain with A9Y, E39A
# B7: FGF4 (Gly79-Leu206) H201A (ligand)
# chain: B1 chain with A9Y, H123A
# B8: FGF4 (Gly79-Leu206) F151A (ligand)
# chain: B1 chain with A9Y, F73A
# B9: FGF4 (Gly79-Leu206) E159A (ligand)
# chain: B1 chain with A9Y, E81A
# B10: FGF4 (Gly79-Leu206) L162A (ligand)
# chain: B1 chain with A9Y, L84A
# B11: N-terminal truncated wild-type FGF4 (Gly79-Leu206) (ligand)
# chain: B1 chain with A9Y
# Molecular target: FGFR2 over-expressed on CHO cells (CHO-FGFR2) and on 32D cells (32D-FGFR2) (UniProt P21803)
# Test: cell-based or functional assay
"DNA Synthesis NIH 3T3 cells (ED50 mutant/ED50 wild-type), +heparin (ratio ED50 mutant/ED50 wild-type)","DNA Synthesis NIH 3T3 cells (ED50 mutant/ED50 wild-type), -heparin (ratio ED50 mutant/ED50 wild-type)",Binder
500,> 500,B1
> 500,500,B2
> 500,> 500,B3
2.5,25,B4
> 500,> 500,B5

# Molecular target: FGFR2 over-expressed on CHO cells (CHO-FGFR2) and on 32D cells (32D-FGFR2) (UniProt P21803)
# Test: competition of unlabeled protein with 125I-FGF4 (Gly79-Leu206) for CHO-FGFR2 cells, +heparin
row,IC50 mutant/IC50 wild-type (ratio (IC50 mutant/IC50 wild-type)),Binder
1,> 100,B1
2,7,B6
3,> 100,B2
4,> 100,B3
5,2.5,B4
6,> 1000,B7
7,> 100,B5
8,2.5,B8
9,5,B9
10,> 1000,B10
11,1,B11
